The target in this experiment is Borna disease virus 1 (BoDV-1) phosphoprotein (Borna disease virus 1). Put plainly: SEC-MALS; SEC-MALLS, Superdex 200 10/300, 20°C, 20 mM HEPES pH 7.5, 150 mM NaCl, 5%(v/v) glycerol; protein applied at 1-4 mg/ml; no concentration dependence of the oligomerization.

One substance from paper PMC9979977 can be followed below.

As to “Borna disease virus 1 (BoDV-1) phosphoprotein (natural protein)”, the stoichiometry N – broadly, a count of units in the complex or per binding partner – stood at 4.
